From patent publication US20190177366A1 (published 2019)
Bridge positions count the residues as written; N and C are the ends. Ends that are not written are not given here.

B1: Compound 32 (peptide)
peptide: Ac-CRLPWNLQRIGLPC-NH2
modifications: disulfide 1-14 (inferred)
B2: Compound 69 (peptide)
peptide: Ac-CRLPWNLQRIGAPC-NH2
modifications: disulfide 1-14
SMILES: CC[C@H](C)[C@@H]1NC(=O)[C@H](CCCNC(=N)N)NC(=O)[C@H](CCC(N)=O)NC(=O)[C@H](CC(C)C)NC(=O)[C@H](CC(N)=O)NC(=O)[C@H](Cc2c[nH]c3ccccc23)NC(=O)[C@@H]2CCCN2C(=O)[C@H](CC(C)C)NC(=O)[C@H](CCCNC(=N)N)NC(=O)[C@@H](NC(C)=O)CSSC[C@@H](C(N)=O)NC(=O)[C@@H]2CCCN2C(=O)[C@H](C)NC(=O)CNC1=O
B3: Compound 67 (peptide)
peptide: Ac-CRLPWNLKRIGLPC-NH2
modifications: disulfide 1-14
SMILES: CC[C@H](C)[C@@H]1NC(=O)[C@H](CCCNC(=N)N)NC(=O)[C@H](CCCCN)NC(=O)[C@H](CC(C)C)NC(=O)[C@H](CC(N)=O)NC(=O)[C@H](Cc2c[nH]c3ccccc23)NC(=O)[C@@H]2CCCN2C(=O)[C@H](CC(C)C)NC(=O)[C@H](CCCNC(=N)N)NC(=O)[C@@H](NC(C)=O)CSSC[C@@H](C(N)=O)NC(=O)[C@@H]2CCCN2C(=O)[C@H](CC(C)C)NC(=O)CNC1=O
B4: Compound 68 (peptide)
peptide: Ac-CRLPWNLQRIGLAC-NH2
modifications: disulfide 1-14
SMILES: CC[C@H](C)[C@@H]1NC(=O)[C@H](CCCNC(=N)N)NC(=O)[C@H](CCC(N)=O)NC(=O)[C@H](CC(C)C)NC(=O)[C@H](CC(N)=O)NC(=O)[C@H](Cc2c[nH]c3ccccc23)NC(=O)[C@@H]2CCCN2C(=O)[C@H](CC(C)C)NC(=O)[C@H](CCCNC(=N)N)NC(=O)[C@@H](NC(C)=O)CSSC[C@@H](C(N)=O)NC(=O)[C@H](C)NC(=O)[C@H](CC(C)C)NC(=O)CNC1=O
B5: SEQ ID NO 377 (peptide)
chain: SGAGKLDLSG
notes: phage clone without anchor
B6: SEQ ID NO 363 (peptide)
chain: TAFTSWEEYLDWVGSGQVTSLPQA
notes: phage clone
B7: SEQ ID NO 368 (peptide)
chain: SGMVYVDRGVRVFT
notes: phage clone without anchor
B8: SEQ ID NO 385 (peptide)
chain: SGDFIPWNLVRIGLLR
B9: SEQ ID NO 358 (peptide)
chain: TAFTSWEEYLDWVGSGGCGYRYMCDMINGL
notes: phage clone
B10: SEQ ID NO 359 (peptide)
chain: TAFTSWEEYLDWVGSGGDCYPHCRLV
modifications: not fully specified (bridges); cysteine pairing not given here
notes: phage clone
B11: SEQ ID NO 391 (peptide)
chain: SGCSDLWNLARIYPMC
modifications: not fully specified (bridges); cysteine pairing not given here
B12: SEQ ID NO 354 (peptide)
chain: TAFTSWEEYLDWVGSGSSTWHFVGGVRV
notes: phage clone
B13: SEQ ID NO 366 (peptide)
chain: SGPRTYLRGLVD
notes: phage clone without anchor
B14: SEQ ID NO 369 (peptide)
chain: SGGCVKYRGSVSCQESKT
modifications: not fully specified (bridges); cysteine pairing not given here
notes: phage clone without anchor
B15: Compound 31 (peptide)
peptide: Ac-CFIPWNLQRIGLLC-NH2
modifications: disulfide 1-14 (inferred)
B16: SEQ ID NO 386 (peptide)
chain: SGCRLPWNLQRIGLPC
B17: SEQ ID NO 361 (peptide)
chain: TAFTSWEEYLDWVGSGPTSGLTPS
notes: phage clone
B18: SEQ ID NO 351 (peptide)
chain: TAFTSWEEYLDWVGSGSPCRVGYTPC
modifications: not fully specified (bridges); cysteine pairing not given here
notes: phage clone
B19: SEQ ID NO 381 (peptide)
chain: SGHASKGMVLSG
notes: phage clone without anchor
B20: SEQ ID NO 390 (peptide)
chain: SGGSMPWNLERIFALH
B21: SEQ ID NO 383 (peptide)
chain: SGCFIPWNLQRIGLLC
B22: SEQ ID NO 352 (peptide)
chain: TAFTSWEEYLDWVGSGNCARLYSHQRDYSQVC
notes: phage clone
B23: SEQ ID NO 375 (peptide)
chain: SGLAPTVSDS
notes: phage clone without anchor
B24: SEQ ID NO 360 (peptide)
chain: TAFTSWEEYLDWVGSGDCLRYRVGSSCS
modifications: not fully specified (bridges); cysteine pairing not given here
notes: phage clone
B25: Compound 30 (peptide)
peptide: Ac-SGCRLPWNLQRIGLPC-NH2
modifications: disulfide 3-16 (inferred)
B26: SEQ ID NO 357 (peptide)
chain: TAFTSWEEYLDWVGSGKMTHMKAD
notes: phage clone
B27: SEQ ID NO 356 (peptide)
chain: TAFTSWEEYLDWVGSGKCDSHYIRGVVACH
notes: phage clone
B28: SEQ ID NO 378 (peptide)
chain: SGVCSDHYIGGKEVRC
modifications: not fully specified (bridges); cysteine pairing not given here
notes: phage clone without anchor
B29: SEQ ID NO 382 (peptide)
chain: SGGSIPWNLERITPPR
notes: phage clone without anchor
B30: SEQ ID NO 353 (peptide)
chain: TAFTSWEEYLDWVGSGCLDRSGGCYTREGYLS
notes: phage clone
B31: SEQ ID NO 362 (peptide)
chain: TAFTSWEEYLDWVGSGRCESKGWANTCVSE
notes: phage clone
B32: SEQ ID NO 370 (peptide)
chain: SGEHQFYSYRGVDVYR
notes: phage clone without anchor
B33: SEQ ID NO 376 (peptide)
chain: SGDTRSQLSH
notes: phage clone without anchor
B34: SEQ ID NO 371 (peptide)
chain: SGACLNHFVSGNMIRC
modifications: not fully specified (bridges); cysteine pairing not given here
notes: phage clone without anchor
B35: SEQ ID NO 374 (peptide)
chain: SGTPEMPAML
notes: phage clone without anchor
B36: SEQ ID NO 355 (peptide)
chain: TAFTSWEEYLDWVGSGCYPLCRVG
notes: phage clone
B37: SEQ ID NO 364 (peptide)
chain: TAFTSWEEYLDWVGSGCYPLCRVL
notes: phage clone
B38: SEQ ID NO 373 (peptide)
chain: SGCWTYLRGGCSVT
modifications: not fully specified (bridges); cysteine pairing not given here
notes: phage clone without anchor
B39: SEQ ID NO 379 (peptide)
chain: SGNALWNHDRLT
notes: phage clone without anchor
B40: SEQ ID NO 387 (peptide)
chain: SGRCLNHLISGNMNSC
modifications: not fully specified (bridges); cysteine pairing not given here
B41: Compound 29 (peptide)
peptide: Ac-SGCFIPWNLQRIGLLC-NH2
modifications: disulfide 3-16 (inferred)
B42: SEQ ID NO 384 (peptide)
chain: SGGACPWNLERIGLSC
B43: SEQ ID NO 367 (peptide)
chain: SGNCWSSLRGICENLG
modifications: not fully specified (bridges); cysteine pairing not given here
notes: phage clone without anchor
B44: SEQ ID NO 372 (peptide)
chain: SGSYRGAWSVFGGSTD
notes: phage clone without anchor
B45: SEQ ID NO 380 (peptide)
chain: SGRNGSGYINRGIEIW
notes: phage clone without anchor
B46: SEQ ID NO 388 (peptide)
chain: SGACVKPCIAGNIIR
modifications: not fully specified (bridges); cysteine pairing not given here

Legend:
[1] = target: T1, His-tagged, full-length PCSK9 (human, UniProt A8T644 31-152; Q8NBP7 153-692); test: TR-FRET competition; competitor EGF(A)-Fc on His-PCSK9
T1 construct: Target protein of the PCSK9/EGF(A) TR-FRET assay (10 nM); also called His-PCSK9; proprotein convertase subtilisin/kexin type 9

[2] = target: T2, proprotein convertase subtilisin/kexin type 9 (PCSK9) (human, UniProt Q8NBP7 31-152); test: phage spot ELISA
T2 construct: domain: prodomain; Recombinant; tag not written as a part; also called rec.PCSK9; His-PCSK9
T2 sequence (Q8NBP7 31-152 limits assumed, chain 1 of 2): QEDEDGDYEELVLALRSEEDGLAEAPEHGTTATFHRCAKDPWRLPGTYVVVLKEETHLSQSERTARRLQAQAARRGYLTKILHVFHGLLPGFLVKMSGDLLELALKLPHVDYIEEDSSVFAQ
T2 sequence (Q8NBP7 153-692 limits assumed, chain 2 of 2): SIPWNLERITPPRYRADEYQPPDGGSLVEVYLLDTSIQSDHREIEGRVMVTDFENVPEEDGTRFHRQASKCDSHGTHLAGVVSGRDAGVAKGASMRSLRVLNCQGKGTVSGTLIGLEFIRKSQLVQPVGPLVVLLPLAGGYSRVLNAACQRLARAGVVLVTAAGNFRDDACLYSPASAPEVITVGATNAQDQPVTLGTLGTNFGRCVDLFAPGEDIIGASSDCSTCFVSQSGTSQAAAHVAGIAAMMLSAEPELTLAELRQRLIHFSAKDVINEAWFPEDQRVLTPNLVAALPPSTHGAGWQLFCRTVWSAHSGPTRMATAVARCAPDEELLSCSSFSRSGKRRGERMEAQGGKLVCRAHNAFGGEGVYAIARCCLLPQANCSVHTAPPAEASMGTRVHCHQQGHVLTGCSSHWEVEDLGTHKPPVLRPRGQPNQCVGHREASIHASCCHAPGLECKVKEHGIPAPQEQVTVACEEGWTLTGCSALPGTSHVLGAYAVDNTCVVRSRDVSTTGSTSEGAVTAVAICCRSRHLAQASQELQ

T1 sequence (A8T644 31-152 limits assumed, chain 1 of 2): as the sequence (Q8NBP7 31-152 limits assumed, chain 1 of 2) above
T1 sequence (A8T644 other isoform, or with tags, fused parts or gaps limits assumed, chain 2 of 2): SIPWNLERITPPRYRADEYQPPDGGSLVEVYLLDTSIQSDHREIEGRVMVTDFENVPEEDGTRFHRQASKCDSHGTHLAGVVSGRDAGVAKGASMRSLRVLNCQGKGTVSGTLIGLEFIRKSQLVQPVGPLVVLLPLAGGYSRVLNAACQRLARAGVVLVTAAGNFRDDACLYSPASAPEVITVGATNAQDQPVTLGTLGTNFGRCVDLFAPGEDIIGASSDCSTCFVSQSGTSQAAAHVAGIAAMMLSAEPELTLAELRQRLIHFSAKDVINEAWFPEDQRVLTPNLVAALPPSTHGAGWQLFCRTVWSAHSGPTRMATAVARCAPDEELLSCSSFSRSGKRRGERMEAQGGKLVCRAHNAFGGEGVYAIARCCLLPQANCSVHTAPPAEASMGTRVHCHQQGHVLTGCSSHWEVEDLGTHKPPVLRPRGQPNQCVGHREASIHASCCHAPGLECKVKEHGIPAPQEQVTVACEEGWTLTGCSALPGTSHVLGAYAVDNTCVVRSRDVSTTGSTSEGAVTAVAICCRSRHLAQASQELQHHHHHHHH

Binder | IC50 [1] [µM] | binding result [2]
B1 | > 50 | –
B2 | > 50 | –
B3 | > 50 | –
B4 | > 50 | –
B5 | – | binds
B6 | – | binds
B7 | – | binds
B8 | – | binds
B9 | – | binds
B10 | – | binds
B11 | – | binds
B12 | – | binds
B13 | – | binds
B14 | – | binds
B15 | > 50 | –
B16 | – | binds
B17 | – | binds
B18 | – | binds
B19 | – | binds
B20 | – | binds
B21 | – | binds
B22 | – | binds
B23 | – | binds

Binder | IC50 [1] [µM] | binding result [2]
B24 | – | binds
B25 | > 50 | –
B26 | – | binds
B27 | – | binds
B28 | – | binds
B29 | – | binds
B30 | – | binds
B31 | – | binds
B32 | – | binds
B33 | – | binds
B34 | – | binds
B35 | – | binds
B36 | – | binds
B37 | – | binds
B38 | – | binds
B39 | – | binds
B40 | – | binds
B41 | > 50 | –
B42 | – | binds
B43 | – | binds
B44 | – | binds
B45 | – | binds
B46 | – | binds
